B1: GOX1462 (Gluconobacter oxydans 621H) (protein)
chain: MQYRQLGRSGLKISALNFGSVTFGGQGNFAATGKVDIAEATRMVDICVEHGVNMFDTADAYSGGEAEEILGRVLQGRSRELLVTSKVRFPTGKGPNEQGLSRHHILNACDDSLRRLGRDHIDLYYLHEWDGLTPVEETLEALQTLRDQGKIRYAGISNFAGWQAMKLLGAAERDRLIAPVSQQLYYSLEARDAEYELLPLAVDQGLGVQVWSPLACGLLTGKYRRGKTAPEDSRRISGWPEPEVRDLKKLYDTVEVLVQIAEEHSVSAARVALAWTLHKPAITSLVLGARQESQLLDNLAAASLRLTQEQVRRLDDVSAPDLIYPYWHQNRNAFDRLSKADLVLQGPAKRHREALETKK
notes: recombinant N-terminal His-tagged protein
B2: GOX0716 (Gluconobacter oxydans 621H) (protein)
chain: MADHSIKGKTALITGGAKNLGGLIALDLAAQGAAAIAIHYNSAATRPDAEATVTALKMQGVRAQAFQADLTTAAANEKLFTDVVAALGKPDIAINTAGKVLKKLILETSEDEYDEMFAINAKAAYFFIKEAGRHLNDNGKLVTIVTSLLGAYTPFYSTYAGSKAAVEHVTRAASKEFGARGISVNAIGPGPMDTPFFYGQEAPEAVAYHKTAAALSSLSKTGLTDIEDIVPIVRCLVSDGWWMTGQTILVNGGYTTK
notes: as for B1

Tests used:
GOX1462 = target: T1, GOX1462 (Gluconobacter oxydans, UniProt Q5FQY5); test: tryptophan fluorescence quenching; type: binding
T1 construct: recombinant N-terminal His-tagged protein
T1 sequence (Q5FQY5 1-359): B1 chain

GOX0716 = target: T2, GOX0716 (Gluconobacter oxydans, UniProt Q5FT03); test: tryptophan fluorescence quenching; type: binding
T2 construct: recombinant N-terminal His-tagged protein
T2 sequence (Q5FT03 1-257): B2 chain

[1] = substrate: CC(=O)C=O; test: purified protein, by the assay type; design: steady-state Michaelis-Menten kinetics of carbonyl substrate reduction, NADPH consumption at 340 nm, 25 °C; settings: 25.0 °C
Description: (§1) For substrate specificity, kinetic measurements were performed at 25 °C in triplicate in 100 mM potassium phosphate buffer, pH 6.0 (for GOX0716) or pH 7.0 (for GOX1462). Substrate utilization was monitored by the decrease in the level of NADPH at 340 nm using a BioTek Epoch 2 microplate reader. Reactions were conducted in a total volume of 200 μL. The molar extinction coefficient of NADPH was determined by constructing a linear regression standard line using NADPH standards of known concentrations. One unit (1 U) of enzyme activity is defined as the amount of enzyme required to oxidize 1 μmol NADPH per minute. Stock solutions of substrates were prepared in dimethyl sulfoxide (DMSO). All kinetic data fitting was performed using nonlinear regression with GraphPad Prism, version 8. All data were fitted to the Michaelis–Menten equation. The kinetic parameters for each enzyme were determined at their respective pH optimum.

[2] = substrate: CCCCCC=O; test: purified protein, by the assay type; design: steady-state Michaelis-Menten kinetics of carbonyl substrate reduction, NADPH consumption at 340 nm, 25 °C; settings: 25.0 °C
Description: as §1

[3] = substrate: CCCCCCC=O; test: purified protein, by the assay type; design: steady-state Michaelis-Menten kinetics of carbonyl substrate reduction, NADPH consumption at 340 nm, 25 °C; settings: 25.0 °C
Description: as §1

[4] = substrate: CCC=O; test: purified protein, by the assay type; design: steady-state Michaelis-Menten kinetics of carbonyl substrate reduction, NADPH consumption at 340 nm, 25 °C; settings: 25.0 °C
Description: as §1

[5] = substrate: O=CC(O)CO; test: purified protein, by the assay type; design: steady-state Michaelis-Menten kinetics of carbonyl substrate reduction, NADPH consumption at 340 nm, 25 °C; settings: 25.0 °C
Description: as §1

[6] = substrate: O=Cc1ccccc1; test: purified protein, by the assay type; design: steady-state Michaelis-Menten kinetics of carbonyl substrate reduction, NADPH consumption at 340 nm, 25 °C; settings: 25.0 °C
Description: as §1

purified protein [7] = substrate: O=C1Nc2ccccc2C1=O; test: purified protein; type: biochemical, Gluconobacter oxydans; settings: NADPH
purified protein [8] = substrate: CCCC=O; test: purified protein; type: biochemical, Gluconobacter oxydans; settings: NADPH
purified protein [9] = substrate: O=C1C=C2C(=CCOC2O)O1; test: purified protein; type: biochemical, Gluconobacter oxydans
purified protein [10] = substrate: O=C1C(=O)c2ccccc2-c2ccccc21; test: purified protein; type: biochemical, Gluconobacter oxydans; settings: NADPH
[11] = substrate: O=CCO; test: purified protein, by the assay type; design: steady-state Michaelis-Menten kinetics of carbonyl substrate reduction, NADPH consumption at 340 nm, 25 °C; settings: 25.0 °C
Description: as §1

[12] = substrate: CCCC=O; test: purified protein, by the assay type; design: steady-state Michaelis-Menten kinetics of carbonyl substrate reduction, NADPH consumption at 340 nm, 25 °C; settings: 25.0 °C
Description: as §1

purified protein [13] = substrate: O=Cc1ccco1; test: purified protein; type: biochemical, Gluconobacter oxydans; settings: NADPH
[14] = NADPH docked as the ring-opened aldehyde form: hydrogen bonds with catalytic Tyr61, Ser157 and Asn158
[15] = NADPH docked as the ring-opened aldehyde form: hydrogen bonds with catalytic Tyr159 and Thr146, Tyr156, Glu201, Pro191, Pro189

Row | Molecule | Km [2] [µM] | kcat [2] [s⁻¹] | kcat/Km [2] [M⁻¹ s⁻¹] | Km [3] [µM] | kcat [3] [s⁻¹] | kcat/Km [3] [M⁻¹ s⁻¹] | Km [4] [µM] | kcat [4] [s⁻¹] | kcat/Km [4] [M⁻¹ s⁻¹] | Km (purified protein [7]) [µM] | kcat (purified protein [7]) [s⁻¹] | kcat/Km (purified protein [7]) [M⁻¹ s⁻¹] | Km (purified protein [10]) [µM] | kcat (purified protein [10]) [s⁻¹] | kcat/Km (purified protein [10]) [M⁻¹ s⁻¹] | further results
1 | NC(=O)C1=CN([C@@H]2O[C@H](COP(=O)(O)OP(=O)(O)OC[C@H]3O[C@@H](n4cnc5c(N)ncnc54)[C@H](OP(=O)(O)O)[C@@H]3O)[C@@H](O)[C@H]2O)C=CC1 [NADPH] |  |  |  |  |  |  |  |  |  |  |  |  |  |  |  | Kd (GOX1462): 30.3 ± 3.56 µM; Kd (GOX0716): 20.5 ± 2.86 µM
2 | B1 | 513 ± 141 | 0.0251 ± 0.00251 | 48.9 ± 14.3 | 178 ± 15.6 | 0.027 ± 0.000671 | 152 ± 13.8 | 164 ± 13.7 | 0.0228 ± 0.000523 | 139 ± 12 | 107 ± 17.1 | 0.163 ± 0.00536 | 1520 ± 248 | 31.9 ± 4.85 | 5.79 ± 0.234 | 182000 ± 28600 | Km [1]: 1990 ± 238 µM; kcat [1]: 0.221 ± 0.0159 s⁻¹; kcat/Km [1]: 111 ± 15.5 M⁻¹ s⁻¹; Km [5]: 483 ± 85.9 µM; kcat [5]: 0.0181 ± 0.00121 s⁻¹; kcat/Km [5]: 37.5 ± 7.12 M⁻¹ s⁻¹; Km [6]: 258 ± 37.7 µM; kcat [6]: 0.0184 ± 0.000807 s⁻¹; kcat/Km [6]: 71.3 ± 10.9 M⁻¹ s⁻¹; Km (purified protein [8]): 139 ± 14.4 µM; kcat (purified protein [8]): 0.0241 ± 0.000654 s⁻¹; kcat/Km (purified protein [8]): 173 ± 18.5 M⁻¹ s⁻¹; Km (purified protein [9]; [14]): 178 ± 25.4 µM; kcat (purified protein [9]; [14]): 0.0389 ± 0.00145 s⁻¹; kcat/Km (purified protein [9]; [14]): 219 ± 32.3 M⁻¹ s⁻¹
3 | B2 | 509 ± 71.7 | 0.00946 ± 0.000516 | 18.6 ± 2.81 | 637 ± 72.8 | 0.0402 ± 0.00191 | 63.1 ± 7.81 | 417 ± 52.1 | 0.0442 ± 0.00201 | 106 ± 14.1 | 282 ± 40.3 | 0.127 ± 0.00588 | 450 ± 67.6 | 46.9 ± 8.17 | 3.14 ± 0.181 | 67000 ± 12300 | Km [11]: 607 ± 110 µM; kcat [11]: 0.00643 ± 0.000459 s⁻¹; kcat/Km [11]: 10.6 ± 2.06 M⁻¹ s⁻¹; Km [12]: 351 ± 40.4 µM; kcat [12]: 0.0339 ± 0.00135 s⁻¹; kcat/Km [12]: 96.6 ± 11.8 M⁻¹ s⁻¹; Km (purified protein [13]): 94.8 ± 8.91 µM; kcat (purified protein [13]): 0.0103 ± 0.000223 s⁻¹; kcat/Km (purified protein [13]): 109 ± 0.0964 M⁻¹ s⁻¹; Km (purified protein [9]; [15]): 1300 ± 213 µM; kcat (purified protein [9]; [15]): 0.0468 ± 0.00402 s⁻¹; kcat/Km (purified protein [9]; [15]): 36 ± 6.66 M⁻¹ s⁻¹

— paper PMC11926874, “Patulin Detoxification by Evolutionarily Divergent Reductases of Gluconobacter oxydans ATCC 621” (Journal of Agricultural and Food Chemistry, 2025)
